Measurements published in publication PMC9284966, “Construction of a T7 phage display nanobody library for bio-panning and identification of chicken dendritic cell-specific binding nanobodies” (Scientific Reports, 2022).

How the values were obtained:
Test in all cases: affinity purification with mass spectrometry; purified GST-VHH fusion protein as bait with lysate of immature chicken bone marrow DCs (day 6); in vitro pull-down, then HPLC-MS (done by ZoonBio Biotechnology)
Details in all cases: one partner purified
[1] = biological target: T1, Uncharacterized protein GN = GPC2 (Gallus gallus (SPF chick), UniProt A0A8V0ZXK1)
T1 construct: Uncharacterized protein, Gallus gallus, GN = GPC2; source: endogenous, chicken bone marrow DC lysate

[2] = biological target: T2, Collagen alpha-2(VI) chain (Gallus gallus (SPF chick), UniProt P15988)
T2 construct: Collagen alpha-2(VI) chain, Gallus gallus, GN = COL6A2; also called COL6A2; source: endogenous, chicken bone marrow DC lysate
T2 sequence (P15988 28-1022): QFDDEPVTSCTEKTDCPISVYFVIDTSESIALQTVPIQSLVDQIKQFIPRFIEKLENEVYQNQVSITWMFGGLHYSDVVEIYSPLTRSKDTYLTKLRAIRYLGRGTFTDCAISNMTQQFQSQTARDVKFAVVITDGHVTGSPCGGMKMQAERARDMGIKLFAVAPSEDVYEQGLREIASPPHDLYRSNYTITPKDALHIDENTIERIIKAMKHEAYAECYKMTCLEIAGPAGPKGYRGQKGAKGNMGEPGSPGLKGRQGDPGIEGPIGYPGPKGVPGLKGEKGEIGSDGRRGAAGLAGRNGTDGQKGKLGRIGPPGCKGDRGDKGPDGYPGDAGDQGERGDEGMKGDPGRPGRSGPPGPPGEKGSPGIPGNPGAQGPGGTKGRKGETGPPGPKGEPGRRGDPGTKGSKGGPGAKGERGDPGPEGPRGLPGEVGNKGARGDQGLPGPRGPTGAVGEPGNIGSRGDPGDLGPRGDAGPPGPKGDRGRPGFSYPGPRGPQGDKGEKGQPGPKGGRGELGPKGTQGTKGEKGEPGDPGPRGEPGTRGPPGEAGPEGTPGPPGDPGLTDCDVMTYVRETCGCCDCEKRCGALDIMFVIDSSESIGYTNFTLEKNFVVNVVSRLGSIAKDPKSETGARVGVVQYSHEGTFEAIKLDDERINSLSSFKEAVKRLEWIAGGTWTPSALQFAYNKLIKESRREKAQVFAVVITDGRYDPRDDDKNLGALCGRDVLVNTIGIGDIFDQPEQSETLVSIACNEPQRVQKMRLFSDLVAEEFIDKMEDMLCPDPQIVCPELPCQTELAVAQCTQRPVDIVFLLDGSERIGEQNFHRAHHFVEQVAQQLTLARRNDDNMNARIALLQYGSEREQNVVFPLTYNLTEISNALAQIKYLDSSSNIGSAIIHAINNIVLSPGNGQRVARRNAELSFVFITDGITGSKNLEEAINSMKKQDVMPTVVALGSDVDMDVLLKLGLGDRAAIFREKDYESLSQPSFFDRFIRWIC

[3] = biological target: T3, Voltage-dependent anion-selective channel protein 1 (Gallus gallus, UniProt E1BYN7)
T3 construct: Voltage-dependent anion-selective channel protein 1, Gallus gallus, GN = VDAC1; also called VDAC1; VDAC; source: endogenous, chicken bone marrow DC lysate

[4] = biological target: T4, UBX domain-containing protein 2B (Gallus gallus, UniProt A0A1D5P1A7)
T4 construct: UBX domain-containing protein 2B, Gallus gallus, GN = UBXN2B; also called UBXN2B; source: endogenous, chicken bone marrow DC lysate
T4 sequence (Q5ZLK2 whole entry, the tested form may be a part): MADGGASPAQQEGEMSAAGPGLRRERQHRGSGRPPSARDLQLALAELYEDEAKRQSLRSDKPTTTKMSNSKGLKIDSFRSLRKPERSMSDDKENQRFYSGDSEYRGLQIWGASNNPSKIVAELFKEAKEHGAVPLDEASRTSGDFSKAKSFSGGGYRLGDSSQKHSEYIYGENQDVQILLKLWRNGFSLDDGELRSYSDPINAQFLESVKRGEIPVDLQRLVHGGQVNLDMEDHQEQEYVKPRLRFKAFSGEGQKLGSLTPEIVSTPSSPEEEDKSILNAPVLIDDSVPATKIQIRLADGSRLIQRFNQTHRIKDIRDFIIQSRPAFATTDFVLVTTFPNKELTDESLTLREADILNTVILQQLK

[5] = biological target: T5, RanGAP1_C domain-containing protein (Gallus gallus, UniProt A0A8V0YG17)
T5 construct: RanGAP1_C domain-containing protein, Gallus gallus, GN = RANGAP1; source: endogenous, chicken bone marrow DC lysate

[6] = biological target: T6, zf-C2H2_7 domain-containing protein (Gallus gallus (SPF chick), UniProt A0A8V0Z1I9)
T6 construct: zf-C2H2_7 domain-containing protein, Gallus gallus, GN = PRR35; also called PRR35; source: endogenous, chicken bone marrow DC lysate
T6 sequence (A0A8V0Z1I9 entry or part of it): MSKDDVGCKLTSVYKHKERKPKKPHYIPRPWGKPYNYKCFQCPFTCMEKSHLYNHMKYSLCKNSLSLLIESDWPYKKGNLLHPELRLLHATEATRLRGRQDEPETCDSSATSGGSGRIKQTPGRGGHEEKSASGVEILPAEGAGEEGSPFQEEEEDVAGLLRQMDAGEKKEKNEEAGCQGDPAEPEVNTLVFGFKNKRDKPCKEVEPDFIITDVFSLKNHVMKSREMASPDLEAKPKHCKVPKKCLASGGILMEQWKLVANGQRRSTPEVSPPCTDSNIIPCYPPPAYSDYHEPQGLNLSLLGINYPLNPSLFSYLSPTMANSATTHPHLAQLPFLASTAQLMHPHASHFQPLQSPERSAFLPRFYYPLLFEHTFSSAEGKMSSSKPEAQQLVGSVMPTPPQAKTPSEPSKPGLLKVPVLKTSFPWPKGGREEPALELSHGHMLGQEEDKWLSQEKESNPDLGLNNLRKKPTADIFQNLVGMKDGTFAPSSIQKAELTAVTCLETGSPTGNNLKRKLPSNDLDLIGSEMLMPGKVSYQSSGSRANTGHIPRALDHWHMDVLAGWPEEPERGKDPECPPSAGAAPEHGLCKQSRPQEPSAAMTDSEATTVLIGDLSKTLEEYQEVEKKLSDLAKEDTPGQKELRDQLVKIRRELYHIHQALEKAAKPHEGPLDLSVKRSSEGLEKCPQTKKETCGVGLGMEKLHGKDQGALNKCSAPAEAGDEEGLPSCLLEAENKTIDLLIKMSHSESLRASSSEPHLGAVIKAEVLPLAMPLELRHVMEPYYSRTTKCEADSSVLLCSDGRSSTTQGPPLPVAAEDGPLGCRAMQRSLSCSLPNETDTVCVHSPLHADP

[7] = biological target: T7, RING-type E3 ubiquitin transferase (Gallus gallus (endogenous, immature …, UniProt A0A8V0YPN2))
T7 construct: RING-type E3 ubiquitin transferase, Gallus gallus, GN = UHRF2; also called UHRF2; source: endogenous, chicken bone marrow DC lysate

[8] = biological target: T8, Uncharacterized protein GN = RAP1A (Gallus gallus (SPF chick), UniProt F1NSA8)
T8 construct: Uncharacterized protein, Gallus gallus, GN = RAP1A; source: endogenous, chicken bone marrow DC lysate
T8 sequence (F1NSA8 entry or part of it): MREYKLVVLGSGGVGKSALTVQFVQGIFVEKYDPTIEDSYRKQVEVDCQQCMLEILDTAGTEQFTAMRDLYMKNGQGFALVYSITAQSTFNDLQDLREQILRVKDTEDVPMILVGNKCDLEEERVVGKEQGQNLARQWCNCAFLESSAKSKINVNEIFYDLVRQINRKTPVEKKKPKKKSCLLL

[9] = biological target: T9, E3 ubiquitin-protein ligase TRIM71 (Gallus gallus (SPF chick), UniProt Q1PRL4)
T9 construct: E3 ubiquitin-protein ligase TRIM71, Gallus gallus, GN = TRIM71; source: endogenous, chicken bone marrow DC lysate

[10] = biological target: T10, Protein disulfide-isomerase (Gallus gallus (SPF chick), UniProt P09102)
T10 construct: Protein disulfide-isomerase, Gallus gallus, GN = P4HB; also called P4HB; source: endogenous, chicken bone marrow DC lysate
T10 sequence (P09102 23-515): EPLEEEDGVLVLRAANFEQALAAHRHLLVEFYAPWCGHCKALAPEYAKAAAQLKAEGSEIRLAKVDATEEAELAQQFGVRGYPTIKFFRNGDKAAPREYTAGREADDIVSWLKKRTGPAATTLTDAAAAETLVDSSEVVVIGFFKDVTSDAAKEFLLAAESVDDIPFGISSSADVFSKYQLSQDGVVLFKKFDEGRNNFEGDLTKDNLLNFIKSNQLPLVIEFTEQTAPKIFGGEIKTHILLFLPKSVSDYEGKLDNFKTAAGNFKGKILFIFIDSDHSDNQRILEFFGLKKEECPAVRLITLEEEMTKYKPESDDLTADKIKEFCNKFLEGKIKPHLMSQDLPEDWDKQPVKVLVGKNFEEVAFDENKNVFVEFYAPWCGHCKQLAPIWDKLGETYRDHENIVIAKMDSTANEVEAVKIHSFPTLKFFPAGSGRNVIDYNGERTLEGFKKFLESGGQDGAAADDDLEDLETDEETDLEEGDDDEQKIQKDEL

[11] = biological target: T11, SET domain-containing protein (Gallus gallus, UniProt A0A1D5PNH9)
T11 construct: SET domain-containing protein, Gallus gallus, GN = PRDM11; also called PRDM11; source: endogenous, chicken bone marrow DC lysate
T11 sequence (A0A1D5PNH9 entry or part of it): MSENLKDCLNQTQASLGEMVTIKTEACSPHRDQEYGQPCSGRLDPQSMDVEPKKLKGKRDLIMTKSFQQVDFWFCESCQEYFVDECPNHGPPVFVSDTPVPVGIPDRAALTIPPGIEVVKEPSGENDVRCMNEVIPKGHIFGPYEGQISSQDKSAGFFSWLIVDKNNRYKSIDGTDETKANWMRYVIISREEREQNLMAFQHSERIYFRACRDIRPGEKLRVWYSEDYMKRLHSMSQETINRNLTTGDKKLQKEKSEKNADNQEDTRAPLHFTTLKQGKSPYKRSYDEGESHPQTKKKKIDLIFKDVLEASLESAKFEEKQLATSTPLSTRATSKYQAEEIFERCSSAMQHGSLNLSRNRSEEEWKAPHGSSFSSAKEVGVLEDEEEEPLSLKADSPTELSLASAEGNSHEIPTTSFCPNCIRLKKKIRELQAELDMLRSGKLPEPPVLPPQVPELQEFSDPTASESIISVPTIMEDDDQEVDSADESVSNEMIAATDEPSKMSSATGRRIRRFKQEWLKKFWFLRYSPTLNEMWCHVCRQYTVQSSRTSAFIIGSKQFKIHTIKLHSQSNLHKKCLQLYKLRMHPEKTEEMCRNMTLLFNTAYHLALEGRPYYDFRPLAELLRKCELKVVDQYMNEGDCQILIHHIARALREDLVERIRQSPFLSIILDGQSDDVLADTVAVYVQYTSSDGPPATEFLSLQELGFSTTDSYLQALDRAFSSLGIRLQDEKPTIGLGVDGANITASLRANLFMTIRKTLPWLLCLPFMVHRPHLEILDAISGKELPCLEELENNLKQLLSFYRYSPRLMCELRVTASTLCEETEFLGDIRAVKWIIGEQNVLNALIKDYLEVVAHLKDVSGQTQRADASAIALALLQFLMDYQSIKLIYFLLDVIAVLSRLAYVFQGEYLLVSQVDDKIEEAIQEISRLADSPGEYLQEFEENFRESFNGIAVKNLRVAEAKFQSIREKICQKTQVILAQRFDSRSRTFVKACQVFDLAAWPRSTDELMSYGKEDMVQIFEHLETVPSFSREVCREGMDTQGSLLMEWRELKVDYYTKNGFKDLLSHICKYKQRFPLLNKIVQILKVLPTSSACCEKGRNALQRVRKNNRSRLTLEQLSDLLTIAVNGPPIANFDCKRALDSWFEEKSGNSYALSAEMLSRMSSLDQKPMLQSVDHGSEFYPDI

[12] = biological target: T12, Extracellular serine/threonine protein kinase FAM20C isoform X1 (Gallus gallus, UniProt A0A3G2WC03)
T12 construct: Extracellular serine/threonine protein kinase FAM20C isoform X1, Gallus gallus; no GN field printed, the symbol stands in the name; source: endogenous, chicken bone marrow DC lysate

Calreticulin = biological target: T13, Calreticulin (Gallus gallus, UniProt A0A8V0X980)
T13 construct: Calreticulin, Gallus gallus, GN = CALR; source: endogenous, chicken bone marrow DC lysate

[13] = biological target: T14, Uncharacterized protein GN = LCP1 (Gallus gallus (SPF chick), UniProt Q5ZLW0)
T14 construct: Uncharacterized protein, Gallus gallus, GN = LCP1; source: endogenous, chicken bone marrow DC lysate

[14] = biological target: T15, Glutathione S-transferase (Gallus gallus (SPF chick), UniProt Q08392)
T15 construct: Glutathione S-transferase, Gallus gallus; no gene name printed; source: endogenous, chicken bone marrow DC lysate
T15 sequence (Q08392 whole entry): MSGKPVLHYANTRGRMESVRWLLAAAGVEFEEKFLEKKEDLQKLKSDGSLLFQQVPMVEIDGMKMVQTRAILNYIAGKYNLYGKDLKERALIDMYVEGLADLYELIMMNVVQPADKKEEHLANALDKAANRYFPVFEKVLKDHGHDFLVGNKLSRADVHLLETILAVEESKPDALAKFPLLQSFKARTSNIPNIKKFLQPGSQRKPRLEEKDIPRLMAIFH

[15] = biological target: T16, BTB domain-containing protein (Gallus gallus, UniProt A0A1D5NYT7)
T16 construct: BTB domain-containing protein, Gallus gallus, GN = KLHL26; also called KLHL26; source: endogenous, chicken bone marrow DC lysate

[16] = biological target: T17, Uncharacterized protein GN = ERCC5 (Gallus gallus (SPF chick), UniProt F1P266)
T17 construct: Uncharacterized protein, Gallus gallus, GN = ERCC5; source: endogenous, chicken bone marrow DC lysate

[17] = biological target: T18, Uncharacterized protein GN = ZBTB26 (Gallus gallus, UniProt A0A1D5NTV7)
T18 construct: Uncharacterized protein, Gallus gallus, GN = ZBTB26; source: endogenous, chicken bone marrow DC lysate
T18 sequence (A0A1D5NTV7 entry or part of it): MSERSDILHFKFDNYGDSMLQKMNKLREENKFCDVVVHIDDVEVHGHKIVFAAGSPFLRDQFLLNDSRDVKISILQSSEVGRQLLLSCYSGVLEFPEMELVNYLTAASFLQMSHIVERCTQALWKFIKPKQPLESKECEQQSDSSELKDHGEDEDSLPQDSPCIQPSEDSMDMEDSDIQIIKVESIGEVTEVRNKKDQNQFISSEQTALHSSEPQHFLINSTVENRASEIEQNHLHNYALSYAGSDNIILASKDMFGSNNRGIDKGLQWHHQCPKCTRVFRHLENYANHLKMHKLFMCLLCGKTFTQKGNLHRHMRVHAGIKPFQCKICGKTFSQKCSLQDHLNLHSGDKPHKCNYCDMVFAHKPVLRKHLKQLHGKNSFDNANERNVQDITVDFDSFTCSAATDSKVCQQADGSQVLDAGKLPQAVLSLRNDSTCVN

Measured: binding result

B1: GST-VHH-74 (VHH)
VHH: QVQLVESGGGLVQEGGSLRLSCVVSGSRDSINAMGWYRQAPGKQRELVATVAGVGSTNYAASVKGRFSISMDNAKNTAYLQMNSLKPEDTAVYYCVADLRGSDRWLWAQGTQVTVSA
notes: VHH from a non-immunised alpaca library; VHH gene of phage-74 fused with the GST gene in pGEX-4T-1; also called VVH-74; source: expressed from pGEX-4T-1 and purified
binds: [1] | [2] | [3] | [4] | [5] | [6] | [7] | [8]

B2: GST-VHH-54 (VHH)
VHH: QVQLVESGGGLVQPGGSLTLSCAASGFTFSKYPMTWVRQAPGKGLEWVSTITSGGTTTYADSVKGRFTISRDNAKDTLYLQMNSLKPEDTAIYYCAELGLPPGGQGTQVTVSS
notes: VHH from a non-immunised alpaca library; VHH gene of phage-54 fused with the GST gene in pGEX-4T-1; also called VVH-54; VVH54; source: expressed from pGEX-4T-1 and purified
binds: [9] | [10] | [11] | [12] | Calreticulin | [13] | [14] | [15] | [16] | [17]
